Assay results as given in patent US20240238445A1, “INHIBITORS AND USES THEREOF” (NEURACLE SCIENCE CO., LTD., priority 2021, published 2024).

B1: LRRC4B (498-576): LRRC4B ectodomain fragment, amino acids 498-576 of SEQ ID NO: 2 (protein)
chain: QPGEEALQPRGTEKEPPGPTTDGVWGGGRPGDAAGPASSSTTAPAPRSSRPTEKAFTVPITDVTENALKDLDDVMKTTK
B2: LRRC4B (453-576): LRRC4B ectodomain fragment, amino acids 453-576 of SEQ ID NO: 2; FLAG-tagged or hFc-fused (protein)
chain: VSAVDPVAAGGTGSGGGGPGGSGGVGGGSGGYTYFTTVTVETLETQPGEEALQPRGTEKEPPGPTTDGVWGGGRPGDAAGPASSSTTAPAPRSSRPTEKAFTVPITDVTENALKDLDDVMKTTK
modifications: FLAG tag or human Fc
notes: FLAG-tagged or hFc-fused

Columns and labels:
[1] = biological target: T1, FAM19A5 protein (Homo sapiens, UniProt Q7Z5A7); test: ELISA binding of recombinant FAM19A5 to coated hFc-conjugated LRRC4 family ectodomains, fragments or synthetic peptides; details: coated 100 nM/well, FAM19A5 up to 10 nM
T1 sequence (Q7Z5A7 44-132): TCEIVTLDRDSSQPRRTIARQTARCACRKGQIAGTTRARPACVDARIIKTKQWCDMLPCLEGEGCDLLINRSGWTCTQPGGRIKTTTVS
Experimental: Next, to confirm the above co-immunoprecipitation results, an ELISA assay was used to measure the binding of the FAM19A5 protein to either the full-length ectodomain of members of LRRC4 protein family or various LRRC4B ectodomain protein fragments. Specifically, an ELISA plate was coated with one of the following LRRC4B ectodomain protein, which was conjugated to human Fc (100 nM/well): (1) full-length ectodomain of LRRC4 protein (amino acid residues 39-527 of SEQ ID NO: 1) (SEQ ID NO: 4); (2) full-length ectodomain of LRRC4B protein (amino acids 36-576 of SEQ ID NO: 2; i.e., construct #7 in Table 6) (SEQ ID NO: 5); (3) full-length ectodomain of LRRC4C protein (amino acids 45-527 of SEQ ID NO: 3) (SEQ ID NO: 6); (4) LRRC4B ectodomain fragment (amino acids 453-576 of SEQ ID NO: 2; i.e., construct #11 in Table 6) (SEQ ID NO: 7); (5) LRRC4B ectodomain fragment (amino acids 484-576 of SEQ ID NO: 2; i.e., construct #12 in Table 6) (SEQ ID NO: 8); (6) LRRC4B ectodomain fragment (amino acids 482-576 of SEQ ID NO: 2) (SEQ ID NO: 9); (7) LRRC4B ectodomain fragment (amino acids 482-497 of SEQ ID NO: 2) (SEQ ID NO: 10); and (8) LRRC4B ectodomain fragment (amino acids 498-576 of SEQ ID NO: 2; i.e., construct #13 in Table 6) (SEQ ID NO: 11). Then, recombinant FAM19A5 proteins (0.005, 0.01, 0.025, 0.05, 0.1, 0.25, 0.5, 1, 2.5, 5, and 10 nM) were added to the relevant wells, and the plates were incubated at 37° C. for 1 hour. Afterwards, the amount of LRRC4B-bound FAM19A5 protein was detected using HRP-conjugated anti-FAM19A5 (1-65) antibody.
As further confirmation, three synthetic polypeptides comprising amino acids 484-497 of SEQ ID NO: 2 (i.e., YTYFTTVTVETLET; SEQ ID NO: 65) were constructed: (1) FB-16 (GYTYFTTVTVETLETQ; SEQ ID NO: 17), (2) FB-20 ([…]; SEQ ID NO: 18), and (3) FB-28 ([…]; SEQ ID NO: 19). The peptides differed in their total length. The ability of these polypeptides to bind to recombinant FAM19A5 protein was assessed using an ELISA assay as described above.

[2] = system: mouse primary cortical neurons; test: Neurite growth of mouse primary cortical neurons in vitro; type: cell-based; details: for neurite growth / neurite outgrowth: treated days 1 and 2, assessed day 3, anti-beta-tubulin III, LRRC4B fragment 0.006 to 60 nM, versus control
Experimental: Next, primary cortical neurons (day 1 postnatal) were cultured in vitro with varying concentrations (0.006 to 60 nM) of the LRRC4B (453-576) protein fragment (i.e., amino acid residues 453-576 of SEQ ID NO: 2; SEQ ID NO: 7), and then at day 3 post-initial culture, the effect on neurite growth was assessed by immunostaining the cells with anti-beta-tubulin III antibody. Cells cultured with DMSO (“Veh”) were used as control.
Mouse hippocampal neurons were treated with LRRC4B peptides at 1 and 2 DIV to determine neurite growth. It was measured by using 3 different parameters, which are total neurites length, number of primary and secondary neurites. After the neurons were stained with beta-tubulin III at 3 DIV, neurites length and branch points were measured using Fiji (Image J, NIH, Bethesda). Individual neurons were selected by hand and these parameters were counted using the Simple neurite tracer plugin. Mouse spinal motor neurons sampled at postnatal day 1 were treated with 10 nM of NS101 and LRRC4B-peptides (dFB-dWY-JM31 and dFB-DY-JM31) at 1 and 2 DIV and immunostained with Tau-5 antibody at 3 DIV. Total neurite length and number of somas in images were measured by Neurphology Image J plugin.

[3] = biological target: T1, FAM19A5 protein; test: Co-immunoprecipitation of FLAG-tagged LRRC4 family deletion constructs/fragments with recombinant FAM19A5 in HEK293 cells; type: binding; details: HEK293 cells expressing FLAG-tagged construct, recombinant FAM19A5 1 μM 30 minutes; IP anti-FLAG, blot anti-FAM19A5 (3-2)
Procedure, shortened: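 HEK293 cells expressing FLAG-tagged LRRC4B deletion constructs or LRRC4C (aa 354-527) / LRRC4 (aa 353-527) fragments were treated with 1 μM recombinant FAM19A5 for 30 min. Lysates immunoprecipitated with anti-FLAG and immunoblotted with anti-FLAG and anti-FAM19A5 (3-2) antibodies.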

[4] = day 3, compared to the control group

| Molecule | binding to FAM19A5 protein (ELISA, in words) [1] | neurite growth / neurite outgrowth [2] | binding to FAM19A5 protein (co-immunoprecipitation) [3] | neurite length [2, 4] | number of branching points [2, 4] | number of primary and secondary neurites [2, 4] |
| --- | --- | --- | --- | --- | --- | --- |
| GYTYFTTVTVETLETQPGEE [FB-20] | able to bind to recombinant FAM19A5 protein with high affinity | Increased neurite outgrowth |  |  |  |  |
| B1 | failed to bind to FAM19A5 |  | not able to do so |  |  |  |
| B2 |  | increased neurite growth in a dose-dependent manner | able to bind to the FAM19A5 protein with varying degree | increased neurite length | increased number of branching points | increased number of primary and secondary neurites |
